Test results: patent US20200079833A1 (AstraZeneca / MedImmune, published 2020)
Starred links: 1 amine or outer side, 2 acyl side, 3 side chain; linkers in the order of their positions; H or OH if unused. Non-standard residues stand in square brackets, D forms with d. Groups on a side chain read outwards from the residue. Primed or numbered codes have the meaning given here. No end group written: not given here. *: point of attachment. γGlu = O=C(O)[C@H](CCC(=O)[*:2])N[*:1]; Stearoyl = CCCCCCCCCCCCCCCCCC(=O)*; αMeF = C[C@](N)(Cc1ccccc1)C(=O)O; αMeK = C[C@](N)(CCCCN)C(=O)O; αMeS = C[C@](N)(CO)C(=O)O; PEG2′ = not defined here; Aib = CC(C)(N)C(=O)O

T1: glucose-dependent insulinotropic peptide (gastric inhibitory polypeptide) receptor (human, UniProt P48546 22-466)
T1 sequence (looked up): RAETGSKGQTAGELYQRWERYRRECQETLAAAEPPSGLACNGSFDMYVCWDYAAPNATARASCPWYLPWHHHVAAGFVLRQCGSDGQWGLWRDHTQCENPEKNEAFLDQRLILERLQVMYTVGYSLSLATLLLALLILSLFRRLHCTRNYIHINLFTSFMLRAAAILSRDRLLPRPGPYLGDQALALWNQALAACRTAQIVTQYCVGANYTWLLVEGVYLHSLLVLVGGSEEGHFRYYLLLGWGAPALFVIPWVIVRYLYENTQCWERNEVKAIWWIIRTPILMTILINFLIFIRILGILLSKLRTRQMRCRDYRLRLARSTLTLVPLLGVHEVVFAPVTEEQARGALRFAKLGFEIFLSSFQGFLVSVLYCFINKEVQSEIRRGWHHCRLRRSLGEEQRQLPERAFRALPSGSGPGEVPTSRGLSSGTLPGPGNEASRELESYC


Columns and labels:
Experiment in all cases: cell-based or functional assay
GLP-1 receptor = GLP-1 receptor (human, UniProt P43220 24-463)
[1] = biological target: T1, glucose-dependent insulinotropic …
glucagon receptor = glucagon receptor (human, UniProt P47871 26-477)
Chain of glucagon receptor (P47871 26-477): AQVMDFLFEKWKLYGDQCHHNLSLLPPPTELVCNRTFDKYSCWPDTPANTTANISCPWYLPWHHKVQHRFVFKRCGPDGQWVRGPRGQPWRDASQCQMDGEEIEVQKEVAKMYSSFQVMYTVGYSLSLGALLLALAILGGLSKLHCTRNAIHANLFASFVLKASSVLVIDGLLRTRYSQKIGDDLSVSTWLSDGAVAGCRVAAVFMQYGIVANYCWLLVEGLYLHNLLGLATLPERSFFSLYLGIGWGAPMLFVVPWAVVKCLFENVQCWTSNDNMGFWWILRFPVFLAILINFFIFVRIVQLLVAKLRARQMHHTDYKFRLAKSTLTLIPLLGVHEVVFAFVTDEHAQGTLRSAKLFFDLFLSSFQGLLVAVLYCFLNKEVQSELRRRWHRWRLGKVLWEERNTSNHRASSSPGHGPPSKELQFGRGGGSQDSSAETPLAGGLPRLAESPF

| Binder | Primary assay EC50 (cAMP), Mean pM GLP-1R (GLP-1 receptor) [pM] | Primary assay EC50 (cAMP), n1 (GLP-1 receptor) [nM] | Primary assay EC50 (cAMP), n2 (GLP-1 receptor) [nM] | Primary assay EC50 (cAMP), n1 [1] [nM] | Primary assay EC50 (cAMP), n2 [1] [nM] | Primary assay EC50 (cAMP), n1 (glucagon receptor) [nM] | Primary assay EC50 (cAMP), n2 (glucagon receptor) [nM] |
| --- | --- | --- | --- | --- | --- | --- | --- |
| H[Aib]EGS[αMeF]SSDVSS[αMeF]LEGEAA[αMeK]E[αMeF]IA[αMeF]VV[αMeK]GG-NH2 (N-terminus assumed; SMILES CC[C@H](C)[C@H](NC(=O)[C@](C)(Cc1ccccc1)NC(=O)[C@H](CCC(=O)O)NC(=O)[C@](C)(CCCCN)NC(=O)[C@H](C)NC(=O)[C@H](C)NC(=O)[C@H](CCC(=O)O)NC(=O)CNC(=O)[C@H](CCC(=O)O)NC(=O)[C@H](CC(C)C)NC(=O)[C@](C)(Cc1ccccc1)NC(=O)[C@H](CO)NC(=O)[C@H](CO)NC(=O)[C@@H](NC(=O)[C@H](CC(=O)O)NC(=O)[C@H](CO)NC(=O)[C@H](CO)NC(=O)[C@](C)(Cc1ccccc1)NC(=O)[C@H](CO)NC(=O)CNC(=O)[C@H](CCC(=O)O)NC(=O)C(C)(C)NC(=O)[C@@H](N)Cc1c[nH]cn1)C(C)C)C(=O)N[C@@H](C)C(=O)N[C@@](C)(Cc1ccccc1)C(=O)N[C@H](C(=O)N[C@H](C(=O)N[C@@](C)(CCCCN)C(=O)NCC(=O)NCC(N)=O)C(C)C)C(C)C) [SEQ ID NO 8] | 88 | 0.071 | 0.11 | 23 | 23 | 7.8 | 12 |
| H[Aib]EGS[αMeF]TSDV[αMeS]S[αMeF]LEGEAAK([PEG2′-PEG2′-PEG2′-Stearoyl])E[αMeF]IA[αMeF]VVKGG-NH2 [SEQ ID NO 56] | 3.2 | 0.0029 | 0.0035 | 26 | 26 | 26 | 26 |
| H[Aib]EGS[αMeF]TSDVSK([PEG2′-PEG2′-γGlu-Stearoyl])YLEGEAAKE[αMeF]IA[αMeF]VVEGG-NH2 [SEQ ID NO 57] | 153 | 0.14 | 0.17 | 25 | 25 | 25 | 25 |
| H[Aib]EGS[αMeF]TSDVSK([PEG2′-PEG2′-γGlu-Stearoyl])YLEGEAAEE[αMeF]IA[αMeF]VVEGG-NH2 [SEQ ID NO 58] | 4720 | 5.2 | 4.3 | 25 | 25 | 25 | 25 |
| H[Aib]EGS[αMeF]TSDVSK([PEG2′-PEG2′-γGlu-Stearoyl])YLEGEAA[Aib]E[αMeF]IA[αMeF]VVEGG-NH2 [SEQ ID NO 59] | 211 | 0.243 | 0.179 | 25.6 | 25.6 | 25.6 | 25.6 |
| H[Aib]EGS[αMeF]TSDVSK([PEG2′-PEG2′-γGlu-Stearoyl])YLEGEAA[αMeK]E[αMeF]IA[αMeF]VVEGG-NH2 [SEQ ID NO 60] | 49 | 0.049 | 0.05 | 25 | 25 | 25 | 25 |
| H[Aib]EGS[αMeF]TSDVSK([PEG2′-PEG2′-PEG2′-Stearoyl])YLEGEAAKE[αMeF]IA[αMeF]VVEGG-NH2 [SEQ ID NO 61] | 0.9 | 0.00085 | 0.00091 | 25 | 25 | 25 | 25 |
| H[Aib]EGS[αMeF]TSDVSK([PEG2′-PEG2′-PEG2′-Stearoyl])YLEGEAAEE[αMeF]IA[αMeF]VVEGG-NH2 [SEQ ID NO 62] | 1.9 | 0.002 | 0.0018 | 25 | 25 | 25 | 25 |
| H[Aib]EGS[αMeF]TSDVSK([PEG2′-PEG2′-PEG2′-Stearoyl])YLEGEAA[Aib]E[αMeF]IA[αMeF]VVEGG-NH2 [SEQ ID NO 63] | 2.9 | 0.00321 | 0.00255 | 25.7 | 25.7 | 25.7 | 25.7 |
| H[Aib]EGS[αMeF]TSDVSK([PEG2′-PEG2′-PEG2′-Stearoyl])YLEGEAA[αMeK]E[αMeF]IA[αMeF]VVEGG-NH2 [SEQ ID NO 64] | 1.3 | 0.0014 | 0.0012 | 25 | 25 | 25 | 25 |
| H[Aib]EGS[αMeF]TSDV[αMeS]S[αMeF]LEGEAAKEFIK([PEG2′-PEG2′-γGlu-Stearoyl])WVVEGG-NH2 [SEQ ID NO 65] | 16.9 | 0.0197 | 0.014 | 25.1 | 25.1 | 25.1 | 25.1 |
| H[Aib]EGS[αMeF]SSEVSS[αMeF]LEGEAA[αMeK]E[αMeF]IA[αMeF]VV[αMeK]GG-NH2 (N-terminus assumed; SMILES CC[C@H](C)[C@H](NC(=O)[C@](C)(Cc1ccccc1)NC(=O)[C@H](CCC(=O)O)NC(=O)[C@](C)(CCCCN)NC(=O)[C@H](C)NC(=O)[C@H](C)NC(=O)[C@H](CCC(=O)O)NC(=O)CNC(=O)[C@H](CCC(=O)O)NC(=O)[C@H](CC(C)C)NC(=O)[C@](C)(Cc1ccccc1)NC(=O)[C@H](CO)NC(=O)[C@H](CO)NC(=O)[C@@H](NC(=O)[C@H](CCC(=O)O)NC(=O)[C@H](CO)NC(=O)[C@H](CO)NC(=O)[C@](C)(Cc1ccccc1)NC(=O)[C@H](CO)NC(=O)CNC(=O)[C@H](CCC(=O)O)NC(=O)C(C)(C)NC(=O)[C@@H](N)Cc1c[nH]cn1)C(C)C)C(=O)N[C@@H](C)C(=O)N[C@@](C)(Cc1ccccc1)C(=O)N[C@H](C(=O)N[C@H](C(=O)N[C@@](C)(CCCCN)C(=O)NCC(=O)NCC(N)=O)C(C)C)C(C)C) [SEQ ID NO 9] | 1200 | 1.2 | 1.2 | 29 | 29 | 29 | 29 |
| H[Aib]EGS[αMeF]TSDV[αMeS]S[αMeF]LEGEAAEEFIK([PEG2′-PEG2′-γGlu-Stearoyl])WVVEGG-NH2 [SEQ ID NO 66] | 150 | 0.203 | 0.0979 | 25.1 | 25.1 | 25.1 | 25.1 |
| H[Aib]EGS[αMeF]TSDV[αMeS]S[αMeF]LEGEAA[Aib]EFIK([PEG2′-PEG2′-γGlu-Stearoyl])WVVEGG-NH2 [SEQ ID NO 67] | 60.1 | 0.0721 | 0.048 | 25.4 | 25.4 | 25.4 | 25.4 |
| H[Aib]EGS[αMeF]TSDV[αMeS]S[αMeF]LEGEAA[αMeK]EFIK([PEG2′-PEG2′-γGlu-Stearoyl])WVVEGG-NH2 [SEQ ID NO 68] | 18.8 | 0.0221 | 0.0155 | 25 | 25 | 25 | 25 |
| H[Aib]EGS[αMeF]TSDV[αMeS]S[αMeF]LEGEAAAEFIK([PEG2′-PEG2′-γGlu-Stearoyl])WVVEGG-NH2 [SEQ ID NO 69] | 53 | 0.0661 | 0.0399 | 25.5 | 25.5 | 25.5 | 25.5 |
